Assay results: the supplement of paper PMC10567573

B1: EPB41L3 (parent)
chain: SMQCKVILLDGSEYTCDVEKRSRG

Variants of: B1
Assay: protein stability index of a GFP-peptide fusion (GPS, HEK-293T) (PSI 1-6); higher = more stable
Conditions: c terminus: a fixed tail appended
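Further: lentivirally expressed fusions sorted by FACS into six bins by GFP to DsRed ratio, PSI derived from sequencing read proportions per bin multiplied by bin number.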

Going from SRQCKVILLDGSEYTCDVEKRSRG [M2R] to SNQCKVILLDGSEYTCDVEKRSRG [M2N], the protein stability index rises from 2.72 to 4.06.

Compared with SIQCKVILLDGSEYTCDVEKRSRG [M2I], STQCKVILLDGSEYTCDVEKRSRG [M2T] is higher in protein stability index: 2.12 for the first, 3.53 for the second.

Compared with SGQCKVILLDGSEYTCDVEKRSRG [M2G], SYQCKVILLDGSEYTCDVEKRSRG [M2Y] is lower in protein stability index: 3.36 for the first, 1.5 for the second.

Compared with SVQCKVILLDGSEYTCDVEKRSRG [M2V], SQQCKVILLDGSEYTCDVEKRSRG [M2Q] is higher in protein stability index: 2.6 for the first, 3.64 for the second.

Going from SPQCKVILLDGSEYTCDVEKRSRG [M2P] to SKQCKVILLDGSEYTCDVEKRSRG [M2K], the protein stability index falls from 3.42 to 3.24.

First: SSQCKVILLDGSEYTCDVEKRSRG [M2S]
Second: SLQCKVILLDGSEYTCDVEKRSRG [M2L]
The protein stability index of the first is higher: 3.2 for the first, 2.55 for the second.

Going from SHQCKVILLDGSEYTCDVEKRSRG [M2H] to SMQCKTILLDGSEYTCDVEKRSRG [V6T], the protein stability index rises from 2.9 to 3.71.

Compared with SMQCKNILLDGSEYTCDVEKRSRG [V6N], SMQCKAILLDGSEYTCDVEKRSRG [V6A] is lower in protein stability index: 4.5 for the first, 2.1 for the second.

First: SMQCKYILLDGSEYTCDVEKRSRG [V6Y]
Second: SMQCKMILLDGSEYTCDVEKRSRG [V6M]
The protein stability index of the first is lower: 2.95 for the first, 3.36 for the second.

Compared with SMQCKLILLDGSEYTCDVEKRSRG [V6L], SMQCKIILLDGSEYTCDVEKRSRG [V6I] is lower in protein stability index: 2.44 for the first, 2.2 for the second.

First: SMQCKEILLDGSEYTCDVEKRSRG [V6E]
Second: SMQCKGILLDGSEYTCDVEKRSRG [V6G]
The protein stability index of the first is higher: 4.55 for the first, 3.61 for the second.

Going from SMQCKHILLDGSEYTCDVEKRSRG [V6H] to SMQCKCILLDGSEYTCDVEKRSRG [V6C], the protein stability index falls from 2.56 to 2.07.

First: SMQCKRILLDGSEYTCDVEKRSRG [V6R]
Second: SMQCKDILLDGSEYTCDVEKRSRG [V6D]
The protein stability index of the first is lower: 3.62 for the first, 4.38 for the second.

Compared with SMQCKWILLDGSEYTCDVEKRSRG [V6W], SMQCKSILLDGSEYTCDVEKRSRG [V6S] is higher in protein stability index: 2.59 for the first, 4.07 for the second.

Compared with SMQCKFILLDGSEYTCDVEKRSRG [V6F], SMQCKPILLDGSEYTCDVEKRSRG [V6P] is higher in protein stability index: 2.76 for the first, 4.68 for the second.

First: SMQCKQILLDGSEYTCDVEKRSRG [V6Q]
Second: SMQCKVILADGSEYTCDVEKRSRG [L9A]
The protein stability index of the first is lower: 2.97 for the first, 3.6 for the second.

Going from SMQCKVILVDGSEYTCDVEKRSRG [L9V] to SMQCKVILIDGSEYTCDVEKRSRG [L9I], the protein stability index falls from 3.31 to 2.97.

Going from SMQCKVILMDGSEYTCDVEKRSRG [L9M] to SMQCKVILEDGSEYTCDVEKRSRG [L9E], the protein stability index rises from 3.2 to 4.28.

Compared with SMQCKVILYDGSEYTCDVEKRSRG [L9Y], SMQCKVILCDGSEYTCDVEKRSRG [L9C] is higher in protein stability index: 2.41 for the first, 2.79 for the second.

Compared with SMQCKVILPDGSEYTCDVEKRSRG [L9P], SMQCKVILTDGSEYTCDVEKRSRG [L9T] is lower in protein stability index: 3.71 for the first, 3.51 for the second.

Going from SMQCKVILSDGSEYTCDVEKRSRG [L9S] to SMQCKVILFDGSEYTCDVEKRSRG [L9F], the protein stability index falls from 2.85 to 2.83.

Going from SMQCKVILRDGSEYTCDVEKRSRG [L9R] to SMQCKVILNDGSEYTCDVEKRSRG [L9N], the protein stability index rises from 3.03 to 3.92.

First: SMQCKVILGDGSEYTCDVEKRSRG [L9G]
Second: SMQCKVILHDGSEYTCDVEKRSRG [L9H]
The protein stability index of the first is higher: 3.72 for the first, 3.44 for the second.

First: SMQCKVILKDGSEYTCDVEKRSRG [L9K]
Second: SMQCKVILDDGSEYTCDVEKRSRG [L9D]
The protein stability index of the first is lower: 3.81 for the first, 4.09 for the second.

First: SMQCKVILQDGSEYTCDVEKRSRG [L9Q]
Second: SMQCWVILLDGSEYTCDVEKRSRG [K5W]
The protein stability index of the first is higher: 3.94 for the first, 2.59 for the second.

Compared with SMQCEVILLDGSEYTCDVEKRSRG [K5E], SMQCLVILLDGSEYTCDVEKRSRG [K5L] is lower in protein stability index: 3.48 for the first, 1.31 for the second.

Compared with SMQCSVILLDGSEYTCDVEKRSRG [K5S], SMQCMVILLDGSEYTCDVEKRSRG [K5M] is lower in protein stability index: 3.04 for the first, 1.43 for the second.

First: SMQCQVILLDGSEYTCDVEKRSRG [K5Q]
Second: SMQCPVILLDGSEYTCDVEKRSRG [K5P]
The protein stability index of the first is lower: 3.06 for the first, 3.85 for the second.

Going from SMQCCVILLDGSEYTCDVEKRSRG [K5C] to SMQCHVILLDGSEYTCDVEKRSRG [K5H], the protein stability index rises from 1.77 to 2.39.

First: SMQCNVILLDGSEYTCDVEKRSRG [K5N]
Second: SMQCFVILLDGSEYTCDVEKRSRG [K5F]
The protein stability index of the first is higher: 3.06 for the first, 1.58 for the second.

Compared with SMQCGVILLDGSEYTCDVEKRSRG [K5G], SMQCRVILLDGSEYTCDVEKRSRG [K5R] is lower in protein stability index: 3.57 for the first, 2.06 for the second.

First: SMQCTVILLDGSEYTCDVEKRSRG [K5T]
Second: SMQCAVILLDGSEYTCDVEKRSRG [K5A]
The protein stability index of the first is lower: 2.54 for the first, 3.27 for the second.

Going from SMQCDVILLDGSEYTCDVEKRSRG [K5D] to SMQCYVILLDGSEYTCDVEKRSRG [K5Y], the protein stability index falls from 3.96 to 3.16.

Compared with SMQCKVILLDGSCYTCDVEKRSRG [E13C], SMQCKVILLDGSDYTCDVEKRSRG [E13D] is higher in protein stability index: 1.81 for the first, 2.37 for the second.

First: SMQCKVILLDGSGYTCDVEKRSRG [E13G]
Second: SMQCKVILLDGSHYTCDVEKRSRG [E13H]
The protein stability index of the first is higher: 2.79 for the first, 2.75 for the second.

Going from SMQCKVILLDGSAYTCDVEKRSRG [E13A] to SMQCKVICLDGSEYTCDVEKRSRG [L8C], the protein stability index rises from 2.14 to 3.13.

First: SMQCKVIHLDGSEYTCDVEKRSRG [L8H]
Second: SMQCKVIYLDGSEYTCDVEKRSRG [L8Y]
The protein stability index of the first is higher: 3.66 for the first, 3.13 for the second.

Going from SMQCKVIMLDGSEYTCDVEKRSRG [L8M] to SMQCKVISLDGSEYTCDVEKRSRG [L8S], the protein stability index rises from 3.13 to 3.79.

Going from SMQCKVIKLDGSEYTCDVEKRSRG [L8K] to SMQCKVIQLDGSEYTCDVEKRSRG [L8Q], the protein stability index rises from 3.43 to 4.25.

Going from SMQCKVIFLDGSEYTCDVEKRSRG [L8F] to SMQCKVITLDGSEYTCDVEKRSRG [L8T], the protein stability index falls from 4.39 to 2.67.

First: SMQCKVINLDGSEYTCDVEKRSRG [L8N]
Second: SMQCKVIELDGSEYTCDVEKRSRG [L8E]
The protein stability index of the first is higher: 4.24 for the first, 4.05 for the second.

Going from SMQCKVIDLDGSEYTCDVEKRSRG [L8D] to SMQCKVIRLDGSEYTCDVEKRSRG [L8R], the protein stability index falls from 4.41 to 2.83.

First: SMQCKVIALDGSEYTCDVEKRSRG [L8A]
Second: SMQCKVIPLDGSEYTCDVEKRSRG [L8P]
The protein stability index of the first is lower: 3.31 for the first, 4.33 for the second.

First: SMQCKVIILDGSEYTCDVEKRSRG [L8I]
Second: SMQCKVILLDGGEYTCDVEKRSRG [S12G]
The protein stability index of the first is lower: 2.17 for the first, 2.9 for the second.

Compared with SMQCKVILLDGPEYTCDVEKRSRG [S12P], SMQCKVILLDGYEYTCDVEKRSRG [S12Y] is lower in protein stability index: 2.4 for the first, 1.78 for the second.

Compared with SMQCKVILLDGVEYTCDVEKRSRG [S12V], SMQCKVILLDGKEYTCDVEKRSRG [S12K] is higher in protein stability index: 2.05 for the first, 3.51 for the second.

Going from SMQCKVILLDGTEYTCDVEKRSRG [S12T] to SMQCKVILLDGIEYTCDVEKRSRG [S12I], the protein stability index rises from 2.16 to 2.39.
